Literature values in paper PMC6092819.

Target: Kv1.3 (Homo sapiens) (UniProt P22001)
Sequence of UniProt P22001 (P22001 whole entry): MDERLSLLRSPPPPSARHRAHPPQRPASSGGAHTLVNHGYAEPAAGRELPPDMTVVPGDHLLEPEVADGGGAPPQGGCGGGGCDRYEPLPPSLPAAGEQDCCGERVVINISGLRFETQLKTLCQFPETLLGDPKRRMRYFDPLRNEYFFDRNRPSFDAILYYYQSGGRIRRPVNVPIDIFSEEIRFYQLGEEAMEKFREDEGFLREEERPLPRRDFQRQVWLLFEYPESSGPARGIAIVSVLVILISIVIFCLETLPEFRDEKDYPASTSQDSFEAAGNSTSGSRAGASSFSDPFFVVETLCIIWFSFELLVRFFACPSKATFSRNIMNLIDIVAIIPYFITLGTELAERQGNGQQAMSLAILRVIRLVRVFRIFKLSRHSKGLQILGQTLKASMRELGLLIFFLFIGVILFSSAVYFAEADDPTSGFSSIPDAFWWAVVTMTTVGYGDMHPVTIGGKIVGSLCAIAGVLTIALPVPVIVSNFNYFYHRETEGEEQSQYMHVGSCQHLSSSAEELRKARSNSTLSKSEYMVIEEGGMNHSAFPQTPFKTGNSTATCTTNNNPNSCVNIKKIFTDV

## ShK (from UniProt P29187)
  Kd: 10 pM
